The results in this text go back to US20240317847A1 (Bayer, published 2024).

Experiment [1] addresses T1, human IL2Ra (human, UniProt P01589 22-240, limits assumed).
T1 construct: coated on the ELISA plate; also called IL-2 receptor alpha
T1 sequence (looked up): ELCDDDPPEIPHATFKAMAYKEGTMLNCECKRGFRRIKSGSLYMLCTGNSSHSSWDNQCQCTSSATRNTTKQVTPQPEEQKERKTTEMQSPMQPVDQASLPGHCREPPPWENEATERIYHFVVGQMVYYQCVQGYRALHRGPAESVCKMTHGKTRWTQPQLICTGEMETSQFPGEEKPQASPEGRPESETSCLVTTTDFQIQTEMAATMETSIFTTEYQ
In words: ELISA on coated IL2Ra, signal ratio to isotype control. The procedure:
IL2RA (Peprotech, Germany, #200-02RC) was coated at 1 or 0 μg/ml (buffer only control) in 30 μl coating buffer (Candor, #113500) per well on a 384 well microtiter plate (Maxisorb, Nunc, #460518) over night at 4-8° C. After two washes with 50 μl/well washing buffer (PBS+0.05% Tween, pH 7.4), the plates were incubated for two hours at room temperature with 50 μl/well SmartBlock (Candor, #113500). After blocking, the plates were washed three times with washing buffer. Then, a dilution series of the respective antibody (1E-7 [M] down to 2E-13 [M]) in PBS+0.05% Tween, 10% SmartBlock were added in 30 μl to the microtiter plate and incubated for 90 min at room temperature. After three additional washes, 30 μl anti mouse IgG HRP-conjugated antibody (Biotechne, HAF007), diluted 1:1000 in PBS+0.05% Tween (pH 7.4), were added per well and incubated for one hour. […] Relative fluorescence was measured with a microtiter plate reader at 535/590 nm.
Bispecific antibodies were subjected to the experimental assay procedure described in Example 20. Ratios of the signals generated at an antibody concentration of 1E-07 [M] by the respective bispecific antibody versus those of an isotype control antibody were calculated and are shown in Table E29. […]
For orientation: ELISA stands for enzyme-linked immunosorbent assay.

For experiment [2], the target named is T1, human IL2Ra. Nature of the experiment: ELISA on coated IL2Ra, signal ratio to isotype control at 1E-07 M antibody.
The target of experiment [3] is T2, human IL-11 (human, UniProt P20809 22-199).
T2 construct: Invigate recombinant protein; biotinylated when immobilized in the Di-complex ELISA; also called hIL11; hIL-11
T2 sequence: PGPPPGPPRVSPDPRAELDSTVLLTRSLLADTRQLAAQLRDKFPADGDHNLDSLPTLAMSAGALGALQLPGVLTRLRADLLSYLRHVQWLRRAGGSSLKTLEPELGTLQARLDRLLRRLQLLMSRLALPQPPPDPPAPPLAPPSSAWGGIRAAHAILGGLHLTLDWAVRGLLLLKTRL
Nature of the experiment: Tri-complex ELISA, hIL-11 + mIL-11Ra-Fc + hgp130-Fc, inhibition of complex formation.

The next experiment has as its target T3, murine IL-11 (mouse, UniProt P47873 22-199).
T3 construct: Invigate recombinant protein; biotinylated when immobilized in the Di-complex ELISA; also called mIL11; mIL-11
T3 sequence: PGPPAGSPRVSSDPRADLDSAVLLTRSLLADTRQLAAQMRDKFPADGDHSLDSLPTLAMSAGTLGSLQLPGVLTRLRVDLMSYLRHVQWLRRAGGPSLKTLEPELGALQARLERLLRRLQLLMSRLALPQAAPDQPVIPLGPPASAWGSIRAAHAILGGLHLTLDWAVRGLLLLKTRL
In words: Tri-complex ELISA, mIL-11 + mIL-11Ra-Fc + mgp130-Fc, inhibition of complex formation.

The target of experiment [4] is T2, human IL-11. Nature of the experiment: Di-complex ELISA, murine IL11RA-Fc binding to immobilized hIL-11, competition.

B1: TPP-29697 (bispecific antibody, IgG1)
chain 1: QVQLVESGGGVVQPGRSLRLSCAASGFTFSHYDMHWVRQAPGKGLEWVAVISYHGSVKFYADSVKGRFTISRDNSKNTLYLQMNSLRAEDTAVYYCARTPGFHFDYWGQGTLVTVSSGGGGSGGGGSGGGGSQSVLTQPPSASGTPGQRVTISCSGSSSNIGSNYVSWYQQLPGTAPKLLIYYDDLRPSGVPDRFSGSKSGTSASLAISGLRSEDEADYYCSAWDDSLSGVVFGGGTKLTVLGGGGSGGGGSGGGGSGVECPPCPAPPVAGPSVFLFPPKPKDTLMISRTPEVTCVVVGVSHEDPEVKFNWYVDGVEVHNAKTKPREEQYNSTYRVVSVLTVLHQDWLNGKEYKCKVSNKQLPSPIEKTISKAKGQPREPQVYTLPPCRDELTKNQVSLWCLVKGFYPSDIAVEWESNGQPENNYKTTPPVLDSDGSFFLYSKLTVDKSRWQQGNVFSCSVMHEALHNHYTQKSLSLSPGK
chain 2: EVQLLESGGGLVQPGGSLRLSCAASGFTFSSYGMHWVRQAPGKGLEWVAVISYDGSYKYYADSVKGRFTISRDNSKNTLYLQMNSLRAEDTAVYYCAAGVPDYWGQGTLVTVSSGGGGSGGGGSGGGGSQSVLTQPPSASGTPGQRVTISCSGSSSNIGSDYDVHWYQQLPGTAPKLLIYSNEERPSGVPDRFSGSKSGTSASLAISGLRSEDEADYYCSAWDSSLSGPVFGGGTKLTVLGGGGSGGGGSGGGGSGVECPPCPAPPVAGPSVFLFPPKPKDTLMISRTPEVTCVVVGVSHEDPEVKFNWYVDGVEVHNAKTKPREEQYNSTYRVVSVLTVLHQDWLNGKEYKCKVSNKQLPSPIEKTISKAKGQPREPQVCTLPPSRDELTKNQVSLSCAVKGFYPSDIAVEWESNGQPENNYKTTPPVLDSDGSFFLVSKLTVDKSRWQQGNVFSCSVMHEALHNHYTQKSLSLSPGK
notes: scFv-kih-hIgG1 with Fc-silencing mutations; bispecific comprising CDRs of TPP-29528 and TPP-29519
By IC50 is commonly meant the concentration that inhibits the measured activity by half. Turning to B1, the binding result in the experiment with human IL2Ra [1] is “no binding (tested: 1E-07 M antibody)”. The “Ratio IL-2Ra Binding Signal Antibody/Isotype Control” value with human IL2Ra [2] was found to be 0.8 ratio. The “Efficacy (%)” value in the experiment with human IL-11 [3] and with murine IL-11 was 104% throughout. The half-inhibitory concentration (IC50) is 1.6 nM with human IL-11 [3], 0.0622 nM with murine IL-11 and 1.6 nM in the experiment with human IL-11 [4].
